Ends that are not written are not given here.
Experiments:
[1] = target: CtSqt1.52C (WD-repeat β-propeller domain of ctSqt1); assay: isothermal titration calorimetry (ITC), C. thermophilum; format: binding, Chaetomium thermophilum
Method: ITC experiments were performed on a MicroCal ITC 2000 instrument (GE Healthcare). The following peptides, corresponding to the N-terminal 19 (without N-terminal methionine) or 20 amino acids of S. cerevisiae and C. thermophilum Rpl10, were synthesized with a free acid group at the C terminus (peptides&elephants): Rpl10(1–20) NH2-[…]-COOH, Rpl10(2–20) NH2-[…]-COOH, ctRpl10(1–20) NH2-[…]-COOH and ctRpl10(2–20) NH2-[…]-COOH. Peptides (1 mg each) were dissolved in the appropriate volume of gel-filtration buffer (20 mM HEPES–NaOH (pH 7.5), 200 mM NaCl, 20 mM KCl and 20 mM MgCl2), which was used for the purification of ScSqt1.53C and ctSqt1.52C, to obtain 1 mM stock solutions. Concentrations of proteins were determined by measuring the A280 using a NanoDrop Lite spectrophotometer (Thermo Scientific). For determination of the C. thermophilum Sqt1/L10-N binding, 200 μl of ctSqt1.52C (10 μM) was added to the sample cell and 2 μl of 100 μM solutions of the peptides was titrated in at 25 °C. For determination of the S. cerevisiae Sqt1/L10-N binding, 200 μl of ScSqt1.53C (100 μM) was added to the sample cell and 2 μl of 1 mM solutions of the peptides were titrated in at 15 °C. ITC data were processed using the Origin ITC Software (OriginLab) and thermodynamic parameters were obtained by fitting the data to a One Set of Sites binding model.

Rrb1 = assay: Y2H interaction with Rrb1; format: binding, S. cerevisiae; conditions: reporter strain PJ69-4A, HIS3 and ADE2 reporters, 3 days at 30 °C
Method: For Y2H interaction assays, plasmids expressing bait proteins, fused to the Gal4 DNA-binding domain (G4BD), and prey proteins, fused to the Gal4 activation domain (G4AD), were co-transformed into reporter strain PJ69-4A. Y2H interactions were documented by spotting representative transformants in 10-fold serial dilution steps onto SC-Trp-Leu, SC-Trp-Leu-His (HIS3 reporter) and SC-Trp-Leu-Ade (ADE2 reporter) plates, which were incubated for 3 days at 30 °C. Growth on SC-Trp-Leu-His plates is indicative of a weak/moderate interaction, whereas only relatively strong interactions permit growth on SC-Trp-Leu-Ade plates.

Rpl3 (endogenous) = Rpl3 (endogenous) (S. cerevisiae (endogenous in yeast …, UniProt P14126 1-387)); assay: cell-based or functional assay
Rpl3 (endogenous) (S. cerevisiae, sequence (P14126 whole entry): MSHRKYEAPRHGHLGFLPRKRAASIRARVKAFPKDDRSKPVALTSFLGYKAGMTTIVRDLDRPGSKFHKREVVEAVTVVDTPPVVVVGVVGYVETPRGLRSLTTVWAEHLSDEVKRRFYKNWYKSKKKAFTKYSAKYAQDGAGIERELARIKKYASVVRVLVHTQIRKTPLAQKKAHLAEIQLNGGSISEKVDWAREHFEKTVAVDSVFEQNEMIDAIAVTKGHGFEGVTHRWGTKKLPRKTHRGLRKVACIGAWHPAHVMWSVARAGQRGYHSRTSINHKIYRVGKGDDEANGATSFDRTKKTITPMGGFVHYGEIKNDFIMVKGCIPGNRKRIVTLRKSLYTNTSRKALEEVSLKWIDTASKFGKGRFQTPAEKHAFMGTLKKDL

[2] = target: T1, Rps3 (endogenous, nascent) (S. cerevisiae (endogenous in yeast cells)) (UniProt P05750)
T1 sequence: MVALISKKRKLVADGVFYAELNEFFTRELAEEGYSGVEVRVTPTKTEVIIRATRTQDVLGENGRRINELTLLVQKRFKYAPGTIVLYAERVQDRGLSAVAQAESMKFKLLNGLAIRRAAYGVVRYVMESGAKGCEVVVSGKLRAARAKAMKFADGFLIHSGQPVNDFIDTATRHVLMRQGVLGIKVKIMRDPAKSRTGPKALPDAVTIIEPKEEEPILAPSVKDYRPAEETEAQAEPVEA

[3] = target: T2, Rpl5 (endogenous, nascent) (S. cerevisiae (endogenous in yeast cells)) (UniProt P26321)
T2 sequence: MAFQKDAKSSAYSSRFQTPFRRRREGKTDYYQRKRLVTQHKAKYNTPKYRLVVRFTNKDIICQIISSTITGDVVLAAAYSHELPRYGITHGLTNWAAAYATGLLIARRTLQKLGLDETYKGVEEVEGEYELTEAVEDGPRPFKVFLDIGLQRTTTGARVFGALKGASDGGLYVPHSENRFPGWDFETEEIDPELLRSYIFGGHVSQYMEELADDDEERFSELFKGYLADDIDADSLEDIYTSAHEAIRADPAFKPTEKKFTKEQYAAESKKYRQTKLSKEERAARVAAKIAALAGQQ

sqt1 mutant cells = assay: in vivo ribosomal protein solubility assay; format: cell-based, S. cerevisiae; conditions: expressed for 20 min from copper-inducible promoter; in sqt1.E315A and sqt1.E110A/D420A mutant cells; 200,000g 1 h
Method: The sqt1 mutant cells, either containing empty vector or a centromeric plasmid expressing Sqt1 from the ADH1 promoter, were grown in a volume of 100 ml to an OD600 of ∼0.7 and expression of C-terminally 2xHA-tagged Rpl10 was induced for 20 min from the CUP1 promoter with 500 μM copper sulfate. After harvesting, cells were lysed with glass beads in a buffer containing 50 mM Tris-HCl (pH 7.5), 100 mM NaCl, 1.5 mM MgCl2, 5% glycerol and 0.1% NP-40, and cell extracts were centrifuged for 3 min at 3,000 r.p.m. Then, total cell extracts, 10 A260 units in a final volume of 500 μl, were subjected to centrifugation at 200,000g for 1 h. Pellets were resuspended in 100 μl lysis buffer and equal amounts of the total extracts (T), soluble extracts (S) and pellet fractions (P) were analysed by SDS–polyacrylamide gel electrophoresis and western blotting using an anti-HA antibody.
Supplementary Figure 9 Sqt1 is required for the soluble expression of Rpl10 in yeast.
Expression of C-terminally 2xHA-tagged Rpl10 (Rpl10-2xHA) was induced for 20 min from the CUP1 promoter with 500 µM copper sulfate in sqt1.E315A or sqt1.E110A/D420A mutant cells containing empty vector (vector) or a plasmid expressing Sqt1 from the constitutive ADH1 promoter (SQT1). […]

Rpl10 (endogenous) = target: T3, Rpl10 (endogenous) (S. cerevisiae (endogenous in yeast …, UniProt P41805 1-221)); assay: cell-based or functional assay
T3 sequence (looked up): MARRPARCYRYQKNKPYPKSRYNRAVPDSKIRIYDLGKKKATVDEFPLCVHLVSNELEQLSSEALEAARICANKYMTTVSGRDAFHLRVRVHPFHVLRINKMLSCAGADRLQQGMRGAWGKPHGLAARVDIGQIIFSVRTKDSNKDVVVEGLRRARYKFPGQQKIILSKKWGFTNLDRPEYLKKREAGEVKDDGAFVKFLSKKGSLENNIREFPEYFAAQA

## H-MARRPARCYRYCKNKPYPKS-OH (cysteine pairing not given here) [CtL10-N(1-20), N-terminal 20 amino acids of C. thermophilum Rpl10]
[1]; 10 μM ctSqt1.52C in cell, 2 μl of 100 μM peptide titrated, 25 °C, 20 mM HEPES–NaOH (pH 7.5), 200 mM NaCl, 20 mM KCl, 20 mM MgCl2, One Set of Sites, read-out: dissociation constant (Kd)
  Kd: ~442 nM
[1]; ctSqt1
  effect of Met1 on the interaction: did not abolish the interaction completely

## amino acids 1–15 of Rpl3: amino acids 1–15 of Rpl3, Y2H bait fused to G4BD (MSHRKYEAPRHGHLG; also: fused to Gal4 DNA-binding domain; UniProt P14126 1-15, looked up, fragment)
Rrb1
  Y2H interaction with Rrb1: sufficient to yield a robust Y2H interaction with full-length Rrb1

B1: NTAP-Rrb1 (natural protein, S. cerevisiae, UniProt Q04225 1-511, looked up)
chain: MSKRSIEVNEEQDRVVSAKTESHSVPAIPASEEQDAPKNDLEEQLSDEFDSDGEIIEIDGDDEINDEDDLRKKQEEAETLVQKDQSEGNKEKIQELYLPHMSRPLGPDEVLEADPTVYEMLHNVNMPWPCLTLDVIPDTLGSERRNYPQSILLTTATQSSRKKENELMVLALSNLAKTLLKDDNEGEDDEEDDEDDVDPVIENENIPLRDTTNRLKVSPFAISNQEVLTATMSENGDVYIYNLAPQSKAFSTPGYQIPKSAKRPIHTVKNHGNVEGYGLDWSPLIKTGALLSGDCSGQIYFTQRHTSRWVTDKQPFTVSNNKSIEDIQWSRTESTVFATAGCDGYIRIWDTRSKKHKPAISVKASNTDVNVISWSDKIGYLLASGDDNGTWGVWDLRQFTPSNADAVQPVAQYDFHKGAITSIAFNPLDESIVAVGSEDNTVTLWDLSVEADDEEIKQQAAETKELQEIPPQLLFVHWQKEVKDVKWHKQIPGCLVSTGTDGLNVWKTISV
Rpl3 (endogenous)
  enrichment of the RPL3 mRNA in the NTAP-Rrb1 purification (IgG-sepharose pull-down from cycloheximide-treated cells, TEV eluate, real-time qRT–PCR): ~100 fold

B2: Yar1-TAP (natural protein)
chain: MGLHSEPLDQEDQDTIILDARAGDLDSLKDIFTTLVSPELLSTCKESESDSTALHMAAANGHIETVRYILETVSRANSAEDLKAFVNEVNKTGNTALHWASLNGKLDVVKLLCDEYEADPFIRNKFGHDAIFEAENSGKEEVETYFLKKYDVEPEDDEEDTQTEGKNSVQITKGTEIEQVTKEATEALREETEKLNINKD
[2]
  enrichment of the RPS3 mRNA in the Yar1-TAP purification (IgG-sepharose pull-down from cycloheximide-treated cells, TEV eluate, real-time qRT–PCR): 100 fold

B3: Syo1-FTpA (natural protein)
chain: MGRSKKRSRASSSRLNPLRKAGSNDNNKDTNVVNKKLQPLLQNLSSVVPNDRSIALSSISVLCEDAHMRQLLLKEKLVPIILNKLLNDSNSDIVVESFGLLRNLSLEEGYDVSIYLWRSDIWTSITSNFGRIVESLSALQAAEQQPQLKPAGKSKIESKRLLFDFADNLLSLVVALSNGSDDILNEILTESKINEIFQVISQLLKYGVEKLPINLFNTTLDLIYDLSSESFEFIDHVSNNELLSQFLNGLSPALHPQANELTKVLIEGIHCQFLDMKITYDQCNKMIHSVCHSINNIDPVQLVNDINNPVEIGPATSKDESSKVITKIKDYNAKRNESMIKLQSIEIAIDLITAIIEIVASKYESPESQEVAIPEELINTLTNFLPHVFMILKDTFTSRILIGWNNLIWLFVSLSLTELSGELLTTLWSYVTQLDSQDDLSIKIGRMGCIWALLKLIFPDGAFESENRALINVQMLNNSGFARGIIEEFQNNNDLELQQKCINVLSTYAMIQGQIDANKEIGQFFIQTLTQLNVRPEILIEMTNSLFQIYGDASYDYNEPIFVRGGFLSILKDQVVPNLRQQFKMVDKNKNPELKERCHDCFTTLDSFIHYKMNENSTNQ
[3]
  enrichment of the RPL5 mRNA in the Syo1-FTpA purification (IgG-sepharose pull-down from cycloheximide-treated cells, TEV eluate, real-time qRT–PCR): 100 fold

B4: Rpl10-2xHA: C-terminally 2xHA-tagged Rpl10 (protein)
chain: MARRPARCYRYQKNKPYPKSRYNRAVPDSKIRIYDLGKKKATVDEFPLCVHLVSNELEQLSSEALEAARICANKYMTTVSGRDAFHLRVRVHPFHVLRINKMLSCAGADRLQQGMRGAWGKPHGLAARVDIGQIIFSVRTKDSNKDVVVEGLRRARYKFPGQQKIILSKKWGFTNLDRPEYLKKREAGEVKDDGAFVKFLSKKGSLENNIREFPEYFAAQA
modifications: left off: 2xHA, C-terminal, kept
notes: C-terminally 2xHA-tagged Rpl10
sqt1 mutant cells
  solubility of newly synthesized Rpl10-2xHA: strongly reduced

B5: Sqt1-TAP (natural protein, S. cerevisiae, UniProt P35184 1-431, looked up)
chain: MEPQEEFITTEEVEQEIVPTVEVEQDVPVDIEGENDDDDEMMNDDEEALEVDMSNNSLTYFDKHTDSVFAIGHHPNLPLVCTGGGDNLAHLWTSHSQPPKFAGTLTGYGESVISCSFTSEGGFLVTADMSGKVLVHMGQKGGAQWKLASQMQEVEEIVWLKTHPTIARTFAFGATDGSVWCYQINEQDGSLEQLMSGFVHQQDCSMGEFINTDKGENTLELVTCSLDSTIVAWNCFTGQQLFKITQAEIKGLEAPWISLSLAPETLTKGNSGVVACGSNNGLLAVINCNNGGAILHLSTVIELKPEQDELDASIESISWSSKFSLMAIGLVCGEILLYDTSAWRVRHKFVLEDSVTKLMFDNDDLFASCINGKVYQFNARTGQEKFVCVGHNMGVLDFILLHPVANTGTEQKRKVITAGDEGVSLVFEVPN
Rpl10 (endogenous)
  enrichment of the RPL10 mRNA in the Sqt1-TAP purification (IgG-sepharose pull-down from cycloheximide-treated cells, TEV eluate, real-time qRT–PCR): ~25 fold
